In patent US20230183352A1 (published 2023):
Where two headings read alike, the source gives them in different places.

Tests used:
[1] = molecular target: T1, Claudin 18.2 (CLDN18.2), expressed on CHOS-CLDN 18.2 / HEK293-CLDN 18.2 / HCC827-CLDN 18.2 cells (human, UniProt P56856-2 1-261); assay: FACS, CHOS-CLDN18.2 cells, 1.250 µg/ml
T1 construct: whole, on cells; The species is not repeated for the CHOS-CLDN 18.2 cells; also called claudin-18A2
Description: (§1) The initial concentration of the antibody was 20 μg/ml, it was diluted at 1:4, and incubated at 4° C. for 60 min.

[2] = molecular target: T1, Claudin 18.2 (CLDN18.2), expressed on …; assay: FACS, CHOS-CLDN18.2 cells, 0 µg/ml (background)
Description: as §1

[3] = molecular target: T1, Claudin 18.2 (CLDN18.2), expressed on …; assay: FACS, CHOS-CLDN18.2 cells
Description: as §1

[4] = molecular target: T1, Claudin 18.2 (CLDN18.2), expressed on …; assay: FACS, CHOS-CLDN18.2 cells, 0.078 µg/ml
Description: as §1

[5] = molecular target: T1, Claudin 18.2 (CLDN18.2), expressed on …; assay: FACS, CHOS-CLDN18.2 cells, 20 µg/ml
Description: as §1

[6] = molecular target: T1, Claudin 18.2 (CLDN18.2), expressed on …; assay: FACS, CHOS-CLDN18.2 cells, 0.020 µg/ml
Description: as §1

[7] = molecular target: T1, Claudin 18.2 (CLDN18.2), expressed on …; assay: FACS, CHOS-CLDN18.2 cells; remark: listed apart in the source
Description: as §1

[8] = molecular target: T1, Claudin 18.2 (CLDN18.2), expressed on …; assay: FACS, CHOS-CLDN18.2 cells, 1.250 µg/ml; remark: listed apart in the source
Description: as §1

[9] = molecular target: T1, Claudin 18.2 (CLDN18.2), expressed on …; assay: FACS, CHOS-CLDN18.2 cells, 0.313 µg/ml
Description: as §1

[10] = molecular target: T1, Claudin 18.2 (CLDN18.2), expressed on …; assay: FACS, CHOS-CLDN18.2 cells, 5 µg/ml
Description: as §1

[11] = molecular target: T1, Claudin 18.2 (CLDN18.2), expressed on …; assay: FACS, CHOS-CLDN18.2 cells, 5 µg/ml; remark: listed apart in the source
Description: as §1

[12] = molecular target: T1, Claudin 18.2 (CLDN18.2), expressed on …; assay: FACS, CHOS-CLDN18.2 cells, 0 µg/ml (background); remark: listed apart in the source
Description: as §1

[13] = molecular target: T1, Claudin 18.2 (CLDN18.2), expressed on …; assay: FACS, CHOS-CLDN18.2 cells, 0.005 µg/ml
Description: as §1

[14] = molecular target: T1, Claudin 18.2 (CLDN18.2), expressed on …; assay: FACS, CHOS-CLDN18.2 cells, 5 µg/ml; remark: listed apart in the source
Description: as §1

[15] = molecular target: T1, Claudin 18.2 (CLDN18.2), expressed on …; assay: FACS, CHOS-CLDN18.2 cells, 20 µg/ml; remark: listed apart in the source
Description: as §1

[16] = molecular target: T1, Claudin 18.2 (CLDN18.2), expressed on …; assay: FACS, MFI on CHOS-CLDN18.2 over MFI on CHOS-CLDN18.1, 10 µg/ml
Description: The initial concentration of the antibody was 20 μg/mkit was diluted at 1:4, and incubated at 4° C. for 60 min.

[17] = molecular target: T1, Claudin 18.2 (CLDN18.2), expressed on …; assay: FACS, CHOS-CLDN18.2 cells, 0.313 µg/ml; remark: listed apart in the source
Description: as §1

[18] = molecular target: T1, Claudin 18.2 (CLDN18.2), expressed on …; assay: FACS, CHOS-CLDN18.2 cells, 0.020 µg/ml; remark: listed apart in the source
Description: as §1

FACS reading [1]: 63700 | FACS reading [2]: 732 | EC50 [3]: 0.27 µg/mL | max [3]: 88600 | FACS reading [4]: 18200 | FACS reading [5]: 72300 | FACS reading [6]: 6950 | EC50 [7]: 0.27 µg/mL | max [7]: 88600 | FACS reading [8]: 63700 | FACS reading [9]: 51000 | FACS reading [10]: 105000 | FACS reading [11]: 105000 | FACS reading [12]: 732 | FACS reading [13]: 2830 | FACS reading [14]: 105000 | FACS reading [15]: 72300 | CLDN18.2/CLDN18.1 (MFI ratio) [16]: 104 | FACS reading [17]: 51000 | FACS reading [18]: 6950
B1: QP024025 (antibody, human IgG1, V domains shown)
VH: QVQLQQPGAELVRPGASVKLSCKASGYTFTSYWINWVKQRPGQGLEWIGNIYPSDSYTNYNQKFKDKATLTVDKSSSTAYMQLSSPTSEDSAVYYCTRSWRGNSFDYWGQGTTLTVSS
VL: DIVMTQSPSSLTVTAGEKVTMSCKSSQSLLNSGNQKNYLTWYQQKPGQPPKLLIYWASTRESGVPDRFTGSGSGTDFTLTISSVQAEDLAVYYCQNDYSYPFTFGSGTKLEIK
notes: also called IMAB362; 175D10(IMAB362)
